From patent US20110250165A1

Legend:
[1] = molecular target: 2442 CXCR2/CXCR4 chimera; experiment: FACS on 293T cells expressing CXCR4 variants
[2] = molecular target: 2444b CXCR2/CXCR4 chimera (human) (UniProt P25025); experiment: FACS on 293T cells expressing CXCR4 variants
[3] = molecular target: 4442 CXCR2/CXCR4 chimera; experiment: FACS on 293T cells expressing CXCR4 variants
[4] = molecular target: human CXCR4 (wild type) (human) (UniProt P61073); experiment: FACS on 293T cells expressing CXCR4 variants
human CXCR4 (wild type) (human), sequence (P61073 whole entry): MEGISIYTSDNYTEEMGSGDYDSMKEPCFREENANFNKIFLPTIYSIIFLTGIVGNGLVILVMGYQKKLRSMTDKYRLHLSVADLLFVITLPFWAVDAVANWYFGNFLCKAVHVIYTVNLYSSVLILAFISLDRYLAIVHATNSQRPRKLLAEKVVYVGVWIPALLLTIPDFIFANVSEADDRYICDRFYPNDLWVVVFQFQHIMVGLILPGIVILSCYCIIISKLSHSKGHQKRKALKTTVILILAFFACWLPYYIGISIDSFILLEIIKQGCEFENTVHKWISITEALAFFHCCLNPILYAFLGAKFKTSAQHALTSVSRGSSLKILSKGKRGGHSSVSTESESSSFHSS

[5] = molecular target: ΔN25-CXCR4 (human) (UniProt P61073); experiment: FACS on 293T cells expressing CXCR4 variants
[6] = molecular target: ΔN31-CXCR4 (human) (UniProt P61073); experiment: FACS on 293T cells expressing CXCR4 variants
[7] = molecular target: CXCR4 (Jurkat) (human) (UniProt P61073); experiment: FACS binding; Jurkat cells, MFI
CXCR4 (Jurkat) (human), sequence (P61073 whole entry): as above

[8] = molecular target: CF2ThCXCR4 (human) (UniProt P61073); experiment: FACS binding; CF2ThCXCR4 cells, MFI
CF2ThCXCR4 (human), sequence (P61073 whole entry): as above

[9] = molecular target: CXCR4 (Jurkat) (human) (UniProt P61073); experiment: FACS binding; Jurkat cells, % positive
[10] = molecular target: CF2ThCXCR4 (human) (UniProt P61073); experiment: FACS binding; CF2ThCXCR4 cells, % positive

2444b CXCR2/CXCR4 chimera (human), sequence (P25025 other isoform, or with tags, fused parts or gaps mutant limits assumed): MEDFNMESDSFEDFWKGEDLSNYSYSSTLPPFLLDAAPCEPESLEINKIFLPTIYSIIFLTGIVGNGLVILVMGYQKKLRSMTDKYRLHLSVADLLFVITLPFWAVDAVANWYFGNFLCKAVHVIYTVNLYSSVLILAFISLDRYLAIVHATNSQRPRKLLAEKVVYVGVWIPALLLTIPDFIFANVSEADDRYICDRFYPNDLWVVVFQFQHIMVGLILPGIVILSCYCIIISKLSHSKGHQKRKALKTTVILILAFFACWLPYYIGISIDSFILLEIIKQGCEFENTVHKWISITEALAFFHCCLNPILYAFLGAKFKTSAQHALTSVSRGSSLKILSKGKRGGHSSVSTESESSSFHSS

Row | binding (+%) [1] [%] | binding (+%) [2] [%] | binding (+%) [3] [%] | binding (+%) [4] [%] | binding (+%) [5] [%] | binding (+%) [6] [%] | EC50 [7] [µg/mL] | EC50 [8] [µg/mL] | EC50 [9] [µg/mL] | EC50 [10] [µg/mL] | Substance
1 | 85.8 | 70.1 | 103 | 100 | 69.2 | 55.4 |  |  |  |  | murine monoclonal antibody 12G5
2 |  |  |  |  |  |  | 16.9 | 0.7 | 0.06 | 0.005 | 12G5
